Reference: article PMC11602162

Target: N-NTD (SARS-CoV-2 (Wuhan-Hu-1)) (UniProt P0DTC9)
Test: DSF
Settings: 10 mM Tris-HCl pH 7.4, 150 mM NaCl, 1 mM MgCl2, BLI with 0.05% Tween-20

With TCGGACATCGGAATGTCTGA [A58-20 T6-to-A] the binding signal was -0.5 C (Tm shift).
